Key:
elastase [1] = assay: Association constant to elastase (Beatty's method); format: biochemical
Method: (§1) Specifically, the AT's activity to inhibit elastase was evaluated by: mixing elastase and AT extract to react them, adding thereto a substrate (prepared by dissolving succinyl-alanyl-alanyl-alanyl-para-nitroanilide (SIGMA S4760) in dimethyl sulfoxide) and measuring the change of absorbency at 410 nm to determine the residual elastase activity. The thermal stability of AT was estimated by determining its activity of inhibiting elastase, using AT treated at 55° C. in case cell extract is used or at 57° to 58° C. in case a purified AT is used. As controls, a wild-type AT produced in E. coli or yeast cell and natural AT isolated and purified from human plasma were used.
From the reaction mixture containing the same concentrations (8 nM) of elastase and AT, samples of the mixture were taken every minute for 10 mins. 1 mM succinyl-alanyl-alanyl-alanyl-p-nitroanilide (SIGMAS4760) was added as a substrate to each sample. The elastase activity of each sample was determined by measuring the absorbency at 410 nm, and then the association constant was calculated from the plot slope of reciprocal of elastase concentration vs time.

elastase [2] = assay: Thermal inactivation of purified AT at 57-58° C., remaining elastase inhibiting activity; format: physicochemical; conditions: for half-life: purified AT
Method: as §1, with “The activity of AT was measured by evaluating the inhibition by AT of the elastase's activity to degrade peptides in accordance with the procedure described by Travis & Johnson in Methods in Enzymol., 80, 754 (1981). Specifically,” for “Specifically,”
The elastase inhibiting activity of AT was evaluated by using a modified method described by Travis et al. (Travis & Jonhson, Methods in Enzymol. 80, 754 (1981)). As a reaction buffer, 50 mM Tris (pH 8.0) containing 50 mM NaCl was used, and 15 mM succinyl-alanyl-alanyl-alanyl-paranitro-anilide (SIGMA S4760) dissolved in dimethyl-sulfoxide was used as a substrate for elastase. An enzyme solution was prepared by dissolving elastase to the concentration of 0.3 μM in the reaction buffer solution containing 50% glycerol.
(§2) The elastase inhibiting activity of AT was determined as follows: 10 μl of the enzyme solution, 10 to 50 μl of the AT extracts and the reaction buffer solution were mixed to make the final volume of 60 μl, and then reacted for 10 mins. After 430 μl of the reaction buffer solution and 10 μl of the substrate were added thereto, the change of absorbency at 410 nm was immediately measured for 3 mins.
For the comparison of their thermal stability, various kinds of AT muteins were incubated at 57° C., from which samples were taken every minute. Then the remaining activity of AT muteins was determined in the same manner as described in Example 1 above and their half-life and thermal inactivation rate were calculated from the slope of the plot of a logalithmic value of the remaining activity vs time (see FIG. 3).

elastase [3] = assay: Thermal stability at 55° C. of AT expressed in E. coli, elastase inhibiting activity measured every minute; format: physicochemical; conditions: FIG. 8
Method: as §1, with “The activity of AT was measured by evaluating the inhibition by AT of the elastase's activity to degrade peptides in accordance with the procedure described by Travis & Johnson in Methods in Enzymol., 80, 754 (1981). Specifically,” for “Specifically,”, “As controls, a wild-type AT produced in E. coli or yeast cell and natural AT isolated and purified from human plasma were used.” left out
The elastase inhibiting activity of AT was evaluated by using a modified method described by Travis et al. (Travis & Jonhson, Methods in Enzymol. 80, 754 (1981)). […]
as §2

[4] = Table II, ATs produced in yeast and controls

Substance	association constant (elastase [1]; [4]) [M⁻¹ s⁻¹]	thermal resistance, times higher than that of the wild-type recombinant AT expressed in E. coli (elastase [2]; at 58° C.) [times]	thermal resistance (in words) (elastase [2]; at 58° C., produced in yeast)	half-life (elastase [2]; at 58° C.) [min]	thermoresistance, times higher than the single mutant ATs (elastase [3])	association constant (elastase [1]; Table I, 8 nM elastase and 8 nM AT, purified AT) [M⁻¹ s⁻¹]	half-life (elastase [2]; at 57° C.) [min]
wild-type yeast AT (phenylalanine): wild-type α-1-antitrypsin produced in Saccharomyces diastaticus (pGAT11)	1.5e+06	5.3	a lower thermoresistance than that of the human plasma AT	6.9	–	–	–
multiple mutant AT wherein the 51st residue is leucine and the 374th is isoleucine: α-1-antitrypsin with two replacements: 51st leucine and 374th isoleucine, expressed in E. coli	–	–	–	–	at least 300 times	–	–
Human plasma AT: natural α-1-antitrypsin from human plasma (A9204), purified over Affi-Gel Blue and mono-Q columns	1.7e+06	–	–	35.2	–	1.7e+06	49.7

Source: patent publication US5817484A, “Thermoresistant α-1-antitrypsin mutein” (priority 1993, dated 1998)
